{
  "source": "IntAct's records for PubMed 34075876",
  "parents": {"B1": {"name": "Protein TOPLESS (Arabidopsis thaliana (Mouse-ear cress)), Q94AI7 (parent)", "chain": "MSSLSRELVFLILQFLDEEKFKETVHKLEQESGFFFNMKYFEDEVHNGNWDEVEKYLSGFTKVDDNRYSMKIFFEIRKQKYLEALDKHDRPKAVDILVKDLKVFSTFNEELFKEITQLLTLENFRENEQLSKYGDTKSARAIMLVELKKLIEANPLFRDKLQFPTLRNSRLRTLINQSLNWQHQLCKNPRPNPDIKTLFVDHSCGPPNGARAPSPVNNPLLGGIPKAGGFPPLGAHGPFQPTASPVPTPLAGWMSSPSSVPHPAVSAGAIALGGPSIPAALKHPRTPPTNASLDYPSADSEHVSKRTRPMGISDEVNLGVNMLPMSFSGQAHGHSPAFKAPDDLPKTVARTLSQGSSPMSMDFHPIKQTLLLVGTNVGDIGLWEVGSRERLVQKTFKVWDLSKCSMPLQAALVKEPVVSVNRVIWSPDGSLFGVAYSRHIVQLYSYHGGEDMRQHLEIDAHVGGVNDISFSTPNKQLCVITCGDDKTIKVWDAATGVKRHTFEGHEAPVYSVCPHYKENIQFIFSTALDGKIKAWLYDNMGSRVDYDAPGRWCTTMAYSADGTRLFSCGTSKDGESFIVEWNESEGAVKRTYQGFHKRSLGVVQFDTTKNRYLAAGDDFSIKFWDMDAVQLLTAIDGDGGLQASPRIRFNKEGSLLAVSGNENVIKIMANSDGLRLLHTFENISSESSKPAINSIAAAAAAAATSAGHADRSANVVSIQGMNGDSRNMVDVKPVITEESNDKSKIWKLTEVSEPSQCRSLRLPENLRVAKISRLIFTNSGNAILALASNAIHLLWKWQRNERNATGKATASLPPQQWQPASGILMTNDVAETNPEEAVPCFALSKNDSYVMSASGGKISLFNMMTFKTMATFMPPPPAATFLAFHPQDNNIIAIGMDDSTIQIYNVRVDEVKSKLKGHSKRITGLAFSNVLNVLVSSGADAQLCVWNTDGWEKQRSKVLPLPQGRPNSAPSDTRVQFHQDQAHFLVVHETQLAIYETTKLECMKQWAVRESLAPITHATFSCDSQLVYASFMDATVCVFSSANLRLRCRVNPSAYLPASLSNSNVHPLVIAAHPQEPNMFAVGLSDGGVHIFEPLESEGKWGVAPPAENGSASGAPTAPSVGASASDQPQR", "partner": "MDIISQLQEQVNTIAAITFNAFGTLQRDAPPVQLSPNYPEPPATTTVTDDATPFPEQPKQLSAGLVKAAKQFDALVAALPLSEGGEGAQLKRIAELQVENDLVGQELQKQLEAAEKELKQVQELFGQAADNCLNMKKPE"}, "B2": {"name": "Protein TOPLESS (Arabidopsis thaliana (Mouse-ear cress)), Q94AI7 (parent)", "chain": "B1 chain", "partner": "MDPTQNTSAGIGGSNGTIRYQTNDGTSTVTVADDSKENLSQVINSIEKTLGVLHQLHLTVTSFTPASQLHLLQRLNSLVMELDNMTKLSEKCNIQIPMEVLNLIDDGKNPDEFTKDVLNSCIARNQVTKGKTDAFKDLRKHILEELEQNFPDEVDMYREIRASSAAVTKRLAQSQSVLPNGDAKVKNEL"}},
  "data": [
    {"variants_of": "B1", "conditions": "with med21_arath MED21, C0LU16", "values": [
      {"variant": "K148A", "effect of a mutation on the interaction": "decreasing interaction strength"},
      {"variant": "E146A", "effect of a mutation on the interaction": "decreasing interaction strength"},
      {"variant": "K149A", "effect of a mutation on the interaction": "decreasing interaction strength"},
      {"variant": "V145A", "effect of a mutation on the interaction": "decreasing interaction strength"}
    ]},
    {"variants_of": "B1", "conditions": "with med21_arath MED21, C0LU16", "remark": "another data set of the same source", "values": [
      {"variant": "V145A;E146A;K148A;K149A", "effect of a mutation on the interaction": "disrupting interaction strength"}
    ]},
    {"variants_of": "B2", "conditions": "with md10b_arath MED10B", "values": [
      {"variant": "V145A;E146A;K148A;K149A", "effect of a mutation on the interaction": "decreasing interaction strength"}
    ]}
  ]
}
